Experimental data: the supplement of paper PMC7125110
± gives the standard error. For part of these data: This sample holds only a part of the variants without activity.

B1: glmS ribozyme (parent)
chain: AUAAAAGCGCCAGAACUACAGAAAUGUAGUUGACGAGGAGGAGGUUUAUCGAAUUUUCGGCGGAUGCCUCCAAA

How the values were obtained:
Conditions in all cases: with glucosamine-6-phosphate
glucosamine-6-phosphate [1] = variants of: B1; test: kcat; higher = faster cleavage; RNA array
Method in brief: (§1)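 kobs was derived by fitting per-tile medians to one- or two-exponential decays after normalising signals to baseline and to non-cleaving reference variants. Those signals came from barcoded ribozyme variants transcribed in situ by E. coli RNA polymerase on sequenced MiSeq chips, followed through a hybridised Cy3 probe at 37 °C and imaged over ~14 h. Glucosamine-6-phosphate (40 μM to 10 mM) in HEPES/KCl/Mg(OAc)2 buffer was flowed in. Weighted Michaelis–Menten fits across concentrations then gave kcat and KM.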

glucosamine-6-phosphate [2] = variants of: B1; test: KM; higher = weaker cofactor use; RNA array
Method in brief: as §1

glucosamine-6-phosphate [3] = variants of: B1; test: self-cleavage kobs at 160 uM GlcN6P; higher = faster cleavage; RNA array
Method in brief: as §1

glucosamine-6-phosphate [4] = variants of: B1; test: self-cleavage kobs at 640 uM GlcN6P; higher = faster cleavage; RNA array
Method in brief: as §1

glucosamine-6-phosphate [5] = variants of: B1; test: self-cleavage kobs at 2500 uM GlcN6P; higher = faster cleavage; RNA array
Method in brief: as §1

glucosamine-6-phosphate [6] = variants of: B1; test: self-cleavage kobs at 10000 uM GlcN6P; higher = faster cleavage; RNA array
Method in brief: as §1

glucosamine-6-phosphate [7] = variants of: B1; test: self-cleavage kobs at 40 uM GlcN6P; higher = faster cleavage; RNA array
Method in brief: as §1

Row | Variant | kcat (glucosamine-6-phosphate [1]) [s⁻¹] | KM (glucosamine-6-phosphate [2]) [µM] | self-cleavage kobs at 160 uM GlcN6P (glucosamine-6-phosphate [3]) [s⁻¹] | self-cleavage kobs at 640 uM GlcN6P (glucosamine-6-phosphate [4]) [s⁻¹] | self-cleavage kobs at 2500 uM GlcN6P (glucosamine-6-phosphate [5]) [s⁻¹] | self-cleavage kobs at 10000 uM GlcN6P (glucosamine-6-phosphate [6]) [s⁻¹] | self-cleavage kobs at 40 uM GlcN6P (glucosamine-6-phosphate [7]) [s⁻¹]
1 | U57A C61G | 1.36e-05 ± 5.5e-06 | – | – | – | – | – | –
2 | A6C U45G | < 1e-05 | – | – | – | – | – | –
3 | A12C A15U C16U C70U | 0.000185 ± 1.8e-05 | 514 ± 130 | 5.1e-05 ± 1.8e-05 | 9.57e-05 ± 2.2e-05 | 0.000148 ± 5e-05 | 0.000188 ± 4.7e-05 | –
4 | U49G C68U | 0.000145 ± 1.9e-05 | 862 ± 360 | 5.03e-05 ± 2.2e-05 | 6.17e-05 ± 1.2e-05 | 9.44e-05 ± 1.6e-05 | 0.000144 ± 1.8e-05 | –
5 | G62U C71A | < 1e-05 | – | – | – | < 1e-05 | – | < 1e-05
6 | G29A C70G | 6.2e-05 ± 1.1e-05 | – | 5.22e-05 ± 1.7e-05 | 5.96e-05 ± 1.1e-05 | 7.74e-05 ± 8.4e-06 | 4.28e-05 ± 8.6e-06 | –
7 | U57G C61G | 1.3e-05 ± 4.8e-06 | – | – | – | – | – | –
8 | C68A C71G | 2.77e-05 ± 1e-05 | – | 3.29e-05 ± 1e-05 | – | 3.63e-05 ± 9.6e-06 | – | –
9 | U57C C70A | 1.97e-05 ± 8.4e-06 | – | – | – | – | – | –
10 | G13U U30A | 5.44e-05 ± 3.6e-06 | 728 ± 260 | – | 3.03e-05 ± 1.5e-05 | 3.78e-05 ± 1.1e-05 | 5.22e-05 ± 8.6e-06 | –
11 | A39C A48U | 0.000107 ± 1.8e-05 | 2930 ± 1400 | < 1e-05 | – | 5.68e-05 ± 1.3e-05 | 8.1e-05 ± 1.2e-05 | < 1e-05
12 | G13U U56A | 0.0005 ± 2.3e-05 | 1880 ± 150 | 4.35e-05 ± 1.3e-05 | 0.000124 ± 1.6e-05 | 0.000287 ± 3.6e-05 | 0.000422 ± 8.8e-05 | –
13 | U31G A48U U55G A64G | 0.000666 ± 0.00016 | 3200 ± 1500 | – | 0.0001 ± 2.9e-05 | 0.000437 ± 0.00013 | 0.000484 ± 9.1e-05 | –
14 | G38U C50G | 4.08e-05 ± 1.4e-05 | – | – | – | 6.94e-05 ± 1.4e-05 | – | –
15 | G29C A52G | 0.000125 ± 7.9e-06 | 1940 ± 350 | – | 2.88e-05 ± 7.9e-06 | 7.18e-05 ± 1e-05 | 0.000104 ± 1e-05 | –
16 | A33U C71U | 0.000125 ± 1.3e-05 | 2840 ± 690 | – | 3.01e-05 ± 7.2e-06 | 5.58e-05 ± 5.4e-06 | 0.0001 ± 9.1e-06 | –
17 | U31A G40A | 0.00231 ± 0.00021 | 1250 ± 170 | 0.000266 ± 0.00011 | 0.000717 ± 0.00016 | 0.00206 ± 0.00066 | 0.00201 ± 0.00033 | 7.32e-05 ± 1.2e-05
18 | G44U U54A | 0.000233 ± 6.1e-05 | – | – | 0.000111 ± 3.6e-05 | 0.000132 ± 4.1e-05 | 0.000252 ± 6.1e-05 | –

Row | Variant | kcat (glucosamine-6-phosphate [1]) [s⁻¹] | KM (glucosamine-6-phosphate [2]) [µM] | self-cleavage kobs at 160 uM GlcN6P (glucosamine-6-phosphate [3]) [s⁻¹] | self-cleavage kobs at 640 uM GlcN6P (glucosamine-6-phosphate [4]) [s⁻¹] | self-cleavage kobs at 2500 uM GlcN6P (glucosamine-6-phosphate [5]) [s⁻¹] | self-cleavage kobs at 10000 uM GlcN6P (glucosamine-6-phosphate [6]) [s⁻¹] | self-cleavage kobs at 40 uM GlcN6P (glucosamine-6-phosphate [7]) [s⁻¹]
19 | U46G U47C | 0.00353 ± 0.0011 | 981 ± 440 | 0.000744 ± 0.00015 | 0.00158 ± 0.00026 | 0.00225 ± 0.00047 | 0.00332 ± 0.0012 | 0.000104 ± 2.7e-05
20 | A53C C70U | 0.00487 ± 0.0012 | 2220 ± 670 | 0.000315 ± 2.6e-05 | 0.000893 ± 0.00013 | 0.00403 ± 0.0007 | 0.00392 ± 0.00044 | 0.000105 ± 1.2e-05
21 | A12C C34A | < 1e-05 | – | < 1e-05 | < 1e-05 | < 1e-05 | – | < 1e-05
22 | A39U U47G | 0.00519 ± 0.00052 | 1940 ± 270 | 0.000358 ± 4.8e-05 | 0.00132 ± 0.00018 | 0.00285 ± 0.00052 | 0.00439 ± 0.00057 | 0.000119 ± 1.7e-05
23 | A39G U55C | 0.0858 ± 0.023 | 3000 ± 920 | 0.00406 ± 0.0011 | 0.0122 ± 0.0029 | – | 0.0709 ± 0.018 | 0.00123 ± 0.00015
24 | A15U G44A | 3.69e-05 ± 5.2e-07 | 2790 ± 140 | – | – | – | 2.88e-05 ± 1.1e-05 | –
25 | A6U C71G | 3.27e-05 ± 8.4e-06 | – | – | 5.72e-05 ± 1.3e-05 | 2.85e-05 ± 1e-05 | 2.69e-05 ± 8e-06 | –
26 | A6U C71A | 5.43e-05 ± 1.1e-06 | 1730 ± 140 | – | – | 3.22e-05 ± 1.3e-05 | 4.63e-05 ± 1.1e-05 | –
27 | A39C C58A | 0.000217 ± 9.9e-05 | – | – | – | – | 5.19e-05 ± 9.6e-06 | < 1e-05
28 | U31C C68G | 1.29e-05 ± 2.8e-06 | – | – | – | – | – | –
29 | A52C U55G | 5.71e-05 ± 5.1e-06 | – | – | – | – | – | < 1e-05
30 | A14U A33U A42G | 9.54e-05 ± 3.1e-05 | – | – | – | 7.08e-05 ± 1.9e-05 | 7.49e-05 ± 2.6e-05 | –
31 | G29C C61A | 1.76e-05 ± 3.3e-06 | – | – | – | – | – | < 1e-05
32 | A14G G29U | 0.00845 ± 0.0039 | – | 0.00105 ± 0.00022 | 0.00497 ± 0.00096 | 0.00501 ± 0.0013 | 0.0131 ± 0.0033 | 0.000647 ± 0.00012
33 | C50U C67U | 2.42e-05 ± 5.8e-06 | – | – | – | 3.69e-05 ± 1.4e-05 | – | –
34 | G41A A52G | 8.32e-05 ± 1.6e-05 | – | – | – | 7.3e-05 ± 1.3e-05 | 6.83e-05 ± 1.3e-05 | –
35 | A33C C70G | < 1e-05 | – | < 1e-05 | – | < 1e-05 | < 1e-05 | –
